Results reported in US20140322225A1 (ADRENOMED, published 2014).

B1: NT-H (antibody, V domains shown)
VH: QVQLQQSGAELMKPGASVKISCKATGYTFSRYWIEWVKQRPGHGLEWIGEILPGSGSTNYNEKFKGKATITADTSSNTAYMQLSSLTSEDSAVYYCTEGYEYDGFDYWGQGTTLTVSS
VL: DVLLSQTPLSLPVSLGDQATISCRSSQSIVYSNGNTYLEWYLQKPGQSPKLLIYRVSNRFSGVPDRFSGSGSGTDFTLKISRVEAEDLGVYYCFQGSHIPYTFGGGTKLEIK
notes: also called NT-H antibody; antibody NT-H
B2: mouse adrenomedullin (mADM 1-50) (peptide)
peptide: YRQSMNQGSRSNGCRFGTCTFQKLAHQIYQLTDKDKDGMAPRNKISPQGYNH

Key:
[1] = biological target: T1, human adrenomedullin (hADM 1-52) (human); assay: SPR (Biacore 2000), antibody captured via anti-mouse Fc, adrenomedullin as analyte
T1 construct: 52 amino acids, aa 95-146 of pre-proADM; also called Human ADM 1-52
Procedure: Reversible immobilization of the antibodies was performed using an anti-mouse Fc antibody covalently coupled in high density to a CM5 sensor surface according to the manufacturer's instructions (mouse antibody capture kit; GE Healthcare). (Lorenz et al., “Functional Antibodies Targeting IsaA of Staphylococcus aureus Augment-lost Immune Response and Open New Perspectives for Antibacterial Therapy”; Antimicrob Agents Chemother. 2011 January; 55(1): 165-173.)

[2] = biological target: T1, human adrenomedullin (hADM 1-52); assay: cell-based or functional assay
[3] = biological target: T1, human adrenomedullin (hADM 1-52); assay: cell-based or functional assay; remark: listed apart in the source
[4] = biological target: human recombinant adrenomedullin receptor (CRLR+RAMP3) (human); assay: cell-based or functional assay

T1 sequence (peptide, as listed by the source): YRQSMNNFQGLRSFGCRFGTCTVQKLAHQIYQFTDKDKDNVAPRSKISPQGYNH

Binder	Kd [1]	IC50 (read off the curve), half of the antibody's own maximal inhibition of cAMP formation induced by 5.63 nM hADM [2]	fold stability of hADM in human citrate plasma with NT-H against hADM alone (7.8 h) [3]	EC50 (read off the curve), cAMP formation [4]
B1	5.9 nM	~2 µg/mL	2.3 fold	–
B2	–	–	–	~0.08 nM
